Data: patent US20020159989

Tested on: T1, recombinant MBP-peptide fusion protein (MBP-29)
T1 sequence: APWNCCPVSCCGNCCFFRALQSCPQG

Question: For proMMP-9 (CALBIOCHEM), which “enzymatic activity of MMP-9 ([3H]-labeled gelatin substrate, TCA soluble radioactivity)” value is on record?
Answer: The value was “inhibited MMP-9 activity in a dose-dependent manner”.

Question: For ProMMP-9 activated with MBP-MMP3, which “enzymatic activity of MMP-9 after MMP-3 dependent activation ([3H]-labeled gelatin substrate)” value is on record?
Answer: The value was “MMP-3 dependent activation of MMP was inhibited in a dose-dependent manner”.
